Results reported in the supplement of paper PMC9170038.

System: MS2 coat protein
Assay: apparent KD of MS2 coat protein; designed switch direction (-1 OFF switch, 1 ON switch): -1; higher = weaker reporter binding
Outline: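 Three titration conditions were used: no input, 200 uM small-molecule ligand, and an oligonucleotide input. In each, SNAP-549-labelled MS2 coat protein was raised from 0.7 or 1.5 nM, doubling, to 3 µM over designed RNA switches transcribed on Illumina chips by stalled E. coli RNA polymerase. Curve fits of normalised cluster fluorescence gave values whose per-design median over clusters is the apparent KD.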

[1] = Eterna round: R95, input ligand: FMN 200 uM
[2] = Eterna round: R95, input ligand: microRNA oligo, concentration not stated
[3] = Eterna round: R95, input ligand: none
[4] = input ligand: microRNA oligo, concentration not stated

Sequence	apparent KD of MS2 coat protein [1]	apparent KD of MS2 coat protein [2]	apparent KD of MS2 coat protein [3]	apparent KD of MS2 coat protein (input ligand: FMN 200 uM)	apparent KD of MS2 coat protein [4]	apparent KD of MS2 coat protein (input ligand: none)
UCUUAUUGCAAGGAUAUGCAAAUUAUUAUUAAUGCAGAAGGUGCUACAUGAGGAUCACCCAUGUUUCCGGGAAA [JR_E6_Sub041] (puzzle: Exclusion 6)	66.6 nM	31.6 nM	31.5 nM	–	–	–
GAUAGAGAGCAGGAUAUCUUGGGUUAGUAUCGUAGAGAAGGGCUCACAUGAGGAUCACCCAUGUGGUCCAAGAU [JL Dibiri mod 02] (puzzle: Exclusion 6)	36.5 nM	15.1 nM	13.3 nM	–	–	–
CUCGUGCAGCAAAGCUGUACGAGUACAUGAGGAUCACCCAUGUAGGAUAUGGUACGCAAAGCGUGCUAGAAGGACGUGUGUAUG [Mat - Exclusion NG 3 - Mod of JL - D91] (Eterna round: R96, puzzle: Exclusion NG 3)	–	–	–	134 nM	28.7 nM	58 nM
AACCAGCGAGGAUAUUGUUGGUAAAACAUGAGGAUCACCCAUGUCACGUGAUCUUCCCAACAAGAAGGUGCACUAA [Isrierin] (Eterna round: R97, puzzle: Exclusion 5)	–	–	–	183 nM	–	46.7 nM
AAACGGGACUGAGGAUAUUCGUUCGAACACGAAGAAGAAGGUAGUGUCAGGGACAUGAGGAUCACCCAUGUGAACUCAGUCCCA [Erinle] (Eterna round: R96, puzzle: Exclusion NG 1)	–	–	–	32.5 nM	21 nM	32.3 nM
UUAGCGUAAGUAAGGAUAUGCUGGUCGAAAGAUCAGCAGAAGGUACAUGAGGAUCACCCAUGUGGAUUCGUUAU [Mod of JL 11 - Jieux - Brourd's mod of Exclusion 4] (Eterna round: R97, puzzle: Brourd's mod of Exclusion 4)	–	–	–	73 nM	–	27.5 nM
AUAGGAGGAGGAUAUGAAACCGAUAACAUGAGGAUCACCCAUGUCGAAAGAACUUUCCGGUCAGAAGGCCUGAUGU [Eternabot (L2) Solution 60] (Eterna round: R97, puzzle: Exclusion 5)	–	–	–	16.3 nM	–	25.1 nM
ACAUGAGGAUCACCCAUGUCAGGCUGGUCCGCUCCGGCUGUUGAGGAUAUAGCUCGGUGUCCGCGCUAGAAGGUGAGGGCCGGC [Aenatbe mod 32] (Eterna round: R96, puzzle: Exclusion NG 3)	–	–	–	25.3 nM	19.3 nM	24.6 nM
CAGUACUGAGGAUAUACAUGAGGAUCACCCAUGUGAUGUAGUGCACGCGUACGUGUACGUAGAAGGCAGUACUG [JL 3.27 m10] (Eterna round: R97, puzzle: Exclusion 3)	–	–	–	49.3 nM	–	17.1 nM
CGAUGUCUUCGGACAUCGAACAUGAGGAUCACCCAUGUAAUGAGCAGAUCUUCAUGCAAGCUUUUUGCUCGUCUUAU [Sensor v3 - turn-off variant 1 - 44] (puzzle: Sensor v3, turn-off variant 1)	215 nM	11.6 nM	213 nM	–	–	–
GAGUGACAUGAGGAUCACCCAUGUGAGGAUAUCGGACGGACCUUGUUGGCUUCCGCCGCGAGAAGGCACAUCGG [Exclusion 1 V26] (puzzle: Exclusion 1)	–	87.5 nM	–	–	–	–
CGGUGCUGAGGAUAUACAUGAGGAUCACCCAUGUGUUCUUGCUAGAAAACUGGCAGAUGUAGAAGGCGGUACUG [Mat - Exclusion 3 - Mod of JL D98] (puzzle: Exclusion 3)	285 nM	35.4 nM	36.6 nM	–	–	–
CUUAGACAUGAGGAUCACCCAUGUGAGGAUAUGAAAUGAAUUAAGUAUGAAGUAUGAAUCAGAAGGCACAUAUG [Mat - Mod of Hyphema D33] (puzzle: Exclusion 1)	63 nM	95.8 nM	107 nM	–	–	–
GAUGUGUUAGGAUAUCGAAGUAUCUGUGCUGUGGCGAAUCACGAGAAGGAACAUGAGGAUCACCCAUGUGGUUG [Eternabot (L2) Solution 34] (Eterna round: R97, puzzle: Exclusion 4)	–	–	–	68.9 nM	–	63.9 nM
UUCCGGCGUGUAGGAUAUGGUUCCGUUUCGGUUCCAGAAGGACAUGAGGAUCACCCAUGUGCCUGUCGUCGGUCGUCACCGGGC [salish99_ExNG1_r04_219] (Eterna round: R96, puzzle: Exclusion NG 1)	–	–	–	22.3 nM	13.3 nM	15.3 nM
ACGCGACAUGAGGAUCACCCAUGUGAGGAUAUGGCCUGUUUGGCGUGUGCUGGCUCUGUCAGAAGGCGCGUGGG [salish99_ex1_r4_040] (Eterna round: R97, puzzle: Exclusion 1)	–	–	–	141 nM	–	90.4 nM
AGAGAGUCAGGAUAUCGGUGUGCGAGGAGAGGAGAGAGAGACGAGAAGGGACAUGAGGAUCACCCAUGUAGGUG [JR_Exclusion4)Sub019] (puzzle: Exclusion 4)	366 nM	389 nM	318 nM	–	–	–

Sequence	apparent KD of MS2 coat protein [1]	apparent KD of MS2 coat protein [2]	apparent KD of MS2 coat protein [3]	apparent KD of MS2 coat protein (input ligand: FMN 200 uM)	apparent KD of MS2 coat protein [4]	apparent KD of MS2 coat protein (input ligand: none)
UGAUCUAGCGGAGGAUAUACAUGAGGAUCACCCAUGUAUAGGCUAUGACCGUAGUCGUGGCACAUGUAGAAGGCCGCUAGAUCU [JL ENG2 3.78] (Eterna round: R96, puzzle: Exclusion NG 2)	–	–	–	43.7 nM	12.8 nM	15.2 nM
CAGUACUGAGGAUAUACAUGAGGAUCACCCAUGUGUUCCAGCUAGGAAACUAGCAAUGGAAGAAGGCAGUACUG [Salish 065 m1] (Eterna round: R97, puzzle: Exclusion 3)	–	–	–	18.8 nM	–	21.6 nM
AUUAUAUAGUAAGGAUAUUGAUUAUUAUUUUAACAUGAGGAUCACCCAUGUAGCCUUAUGUAUAACAAGAAGGUACAUUUAUUA [Title] (Eterna round: R96, puzzle: Exclusion NG 2)	–	–	–	–	44.5 nM	–
GUGGGUUACAUGAGGAUCACCCAUGUAGAGUGGGAAGAGAGAUAGGAUAUGAUGUGAGAAUUAUAUCAGAAGGAUCGAGACUCG [AK ExNG3-2.4] (Eterna round: R96, puzzle: Exclusion NG 3)	–	–	–	268 nM	136 nM	214 nM
AACAGCACAGGAUAUACAUGAGGAUCACCCAUGUGAGAAUUAAGUAGAUUGCCACAGAGUAGAAGGGUGCUGGA [Ruby 99] (Eterna round: R96, puzzle: Exclusion 3)	–	–	–	88.9 nM	36.4 nM	38.9 nM
AGACAACAUGAGGAUCACCCAUGUAAGGAUAUACAAGAUUUGAGAAACGGACUGCCUUGUAGAAGGUACAGGUG [Eternabot (L2) Solution 9] (Eterna round: R97, puzzle: Exclusion 1)	–	–	–	51 nM	–	36.7 nM
AAGACACUUAGAGGAUAUGUGAAAGGAAGUGUAACAGAAGGCUAGGUGAGAACAUGAGGAUCACCCAUGUGAUCACAUGCCAAA [PowerStrip EXNG 1.27] (Eterna round: R96, puzzle: Exclusion NG 1)	–	–	–	20 nM	11.9 nM	12.1 nM
GAUUAUGCGAGCUUUAGGGACAUGAGGAUCACCCAUGUUCGUCUUAUUAGUCUAGAUACACUGACAUACCUAAAUCU [JMF 57] (puzzle: Sensor v3, turn-off variant 1)	14.5 nM	18.2 nM	13.8 nM	–	–	–
CCAAGCUUAUUCAUUAACCACAUGAGGAUCACCCAUGUAUAGGCAAUUAUGACUGGCCCAUCUGGUGCUCGUCUUAU [Sensor-V1 #30] (Eterna round: R97, puzzle: Sensor, turn-off variant 1)	–	–	–	17 nM	–	15.9 nM
AAUUAUUGAUGAGGAUAUUGUGGUGAAACACGACGAGAAGGCAUAUGUCACAUGAGGAUCACCCAUGUGAGCCUUGUGGAUAUA [Ex NG1 #65] (Eterna round: R96, puzzle: Exclusion NG 1)	–	–	–	–	43.5 nM	–
UACAUGAGGAUCACCCAUGUUUUGUCGUGUAUGGUAUUUAUCUAGGAUAUCAAUUUAUUUAUGUAUGAGAAGGAGAAUAUUAAU [JMF's solution 23] (Eterna round: R96, puzzle: Exclusion NG 3)	–	–	–	40.8 nM	29.8 nM	44.7 nM
CCAAGCUGUGUGAGGAUAUGCUGGACCUUGGUUCAGCAGAAGGCACAUGAGGAUCACCCAUGUGAAAAGCUUGG [Mat - Exclusion 4 - JL Mod - D94] (puzzle: Brourd's mod of Exclusion 4)	47.5 nM	16.6 nM	16.4 nM	–	–	–
AGAAGUAGAAACCGAUCCUACAUGAGGAUCACCCAUGUAGCAAGACGUGCACGCGAAGCUCGUCAGACUACCAGACG [salish99_TOv1_r3_019] (puzzle: Sensor v3, turn-off variant 1)	152 nM	175 nM	249 nM	–	–	–
CCAAGUUCAUAGGAUAUCAGACGGAUAAAGGUAUGAGAAGGAUGAACAUGAGGAUCACCCAUGUGCACUCCCGA [EX6 B.19] (Eterna round: R97, puzzle: Exclusion 6)	–	–	–	34.1 nM	–	14.2 nM
CCCAGUUAGUGAGGAUAUCAUACAUGAGGAUCACCCAUGUAAUAAAUGAGGAUUUCGGGUGUCUAUGAGAAGGCACGGAUAGGC [Ostracism 26 - Jieux - Exclusion NG 2] (Eterna round: R96, puzzle: Exclusion NG 2)	–	–	–	27.2 nM	22.2 nM	30.4 nM
CUCAGGUCAGGAUAUGUAGACCGGUGCAGACACUACGGGAAACAGAAGGGACAUGAGGAUCACCCAUGUUCGUA [EX4 B.11] (Eterna round: R97, puzzle: Exclusion 4)	–	–	–	45 nM	–	30.4 nM
